Patent US20100330094A1 (NOVIMMUNE S A, published 2010)

T1: recombinant human IP-10 (hIP-10) (human, UniProt P02778 22-98)
T1 sequence (looked up): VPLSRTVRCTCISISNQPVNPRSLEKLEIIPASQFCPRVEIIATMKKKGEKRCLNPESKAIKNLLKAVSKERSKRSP


Molecular target: T1, recombinant human IP-10 (hIP-10)
Assay: cell-based or functional assay

Binder	Chemotaxis IC50 (nM); 0.2 nM hIP-10; hCXCR3 L1.2 cells	Calcium flux IC50 (nM); 10 nM hIP-10; hCXCR3 L1.2 cells	Chemotaxis IC50 (nM); 1 nM hIP-10; hCXCR3 L1.2 cells	Chemotaxis IC50 (nM); 2 nM hIP-10; hCXCR3 L1.2 cells
CF1N1R3P4_C7, scFv format (scFv) QVQLVESGGGVVQPGRSLRLSCAASGFTFSNSGIHWVRQAPGKGLEWVAVISYDGSNKFYADSVKGRFTISRDNSKNTLYLQMNSLRAEDTAVYYCAKLRDNAEYTDYWGQGTLVTVSSNFMLTQPHSVSESPGKTVTISCTGSGGSIDRNYVQWYQQRPGSSPTTVIYEDNQRPSGVPDRFSGSIDSSSNSASLTISGLKTEDEADYYCQSYDPLPVWVFGGGTKLTVL	0.12 nM	–	–	–
CF1H1R3P3_G11, scFv format (scFv) QVQLVESGGGVVQPGRSLRLSCAASGFTFSNSGIHWVRQAPGKGLEWVAVISYDGSNKFYADSVKGRFTISRDNSKNTLYLQMNSLRAEDTAVYYCAKLRDNGEYLDYWGQGTLVTVSSNFMLTQPHSVSESPGKTVTISCTGSGGSIDRNYVQWYQQRPGSSPTTVIYEDNQRPSGVPDRFSGSIDSSSNSASLTISGLKTEDEADYYCQSYDPLPVWVFGGGTKLTVL	0.39 nM	7.8 nM	–	–
CC21R3P1_B9, scFv format (scFv) EVQLVQSGGGVVQPGRSLRLSCAASGFTFSSYGMHWVRQAPGKGLEWVAVISYDGSNKYYADSVKGRFTISRDNSKNTLYLQMNSLRAEDTAVYYCAKDGGWYDWYFDLWGRGTLVTVSSSSELTQDPDVSVALGQTVRITCQGDSLTSYYASWYQQKPGQAPVLVISGNDNRPSGIPDRFSGSNSGNTASLTITGAQAEDAADYYCGSRDSSGYQVVFGAGTKLTVL	–	107 nM	107 nM	–
CC21R3P1_H6, scFv format (scFv) QVQLVESGGGVAQSGKSLRLSCAASGFTFSNYGMHWVRQAPGKGLEWLAVISYDGSNRYYADSVKGRFTISRDNSNNTLNLQMSSLRAEDTALYYCAKDAGGPLDYWGKGTLVTVSSQSVLTQLTQPPSVSLAPGQTATITCGGDNIGRKSVHWYQQKPGQAPVLVVYDDTDRPSGIPERFSGSNSGNTATLTISRVEAGDEADYYCQVWDSSIDHSWVFGGGTKLTVL	–	71 nM	36 nM	–
CC21R3P1_F1, scFv format (scFv) QVQLVESGGGVVQPGRSHTLSCAASGFAFKNSGIHWVRQAPGKGLEWVAVISYDGSNKFYADSVKGRFTISRDNSQNTVYLQMTDLRPDDTAVYYCARDGSESEYLDYWGKGTLVTVSSNFMLTQPHSVSESPGKTVTISCTGSGGSIDRNYVQWYQQRPGSAPITVIYEDNQRPSGVPDRFSGSIDSSSNSASLTISGLRTDDEADYYCQSYDSINLWVFGGGTKVTVL	–	36 nM	–	18 nM
CB1R3P4_D3, scFv format (scFv) QVQLVQFGGGVVQPGRSLRLSCAASGFTFSSYGMHWVRQAPGKGLEWVAVISYDGSIKYYADSVKGRFTISRENAKNSVYLQMDSLRVGDTAVYYCTRAGYSTDWHPDYWGQGTMVTVSSSSELTQDPAVSVALGQTVRITCQGDSLRSYYASWYQQKPGQAPVLAIYGKNNRPSGIPDRFSGSSSGNTASLTITGAQAEDEADYYCNSRDSSGNHVVFGGGTKLTVL	–	179 nM	72 nM	–
CB21R3P3_E5, scFv format (scFv) QVQLVESGGGVVQPGRSLRLSCAASGFTFSSYGMHWVRQAPGKGLEWVAVISYDGSIKYYADSVKGRFTISRDNSKNTLYLQMNSLRAEDAAVYYCARAPDGHQLDYWGRGTLVTVSSNFMLTQPHSVSESPGKTVTISCTGSSGSIASNYVQWYQQRPGSAPTTVIYEDDQRPSDVPDRFSGSIDSSSNSASLTISGLRTEDEADYYCQSYVSSKWVFGGGTKLTVL	–	39 nM	–	36 nM
